We go through eleven molecules from publication PMC10247153 (2022).

For assay [1], the target named is T1, PHD1 (KDM5C residues 318–378) (human, UniProt P41229-1 318-378).
T1 chain: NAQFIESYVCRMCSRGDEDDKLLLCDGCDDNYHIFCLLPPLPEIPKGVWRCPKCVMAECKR
In words: NMR; from D343.

The target of assay [2] is T2, Avitag-PHD1 (human, UniProt P41229-1 318-378, not fully specified; biotin on the Avitag (BirA co-expression)).
T2 chain: T1 chain
The experiment in a line: BLI; dissociation kobs1 (two phase).

Assay [3] has as its target T2, Avitag-PHD1. In words: BLI; dissociation kobs2 (two phase). In general terms: In BLI a coated tip is dipped into the sample, and binding shifts an interference pattern.
The target of the next assay is T3, PHD1 D343A mutant (human, UniProt P41229-1 318-378, D343A).
T3 sequence: T1 chain with D26A
The experiment in a line: NMR; lower limit, from I361.

The target in assay [4] is T4, unmodified 187 bp mononucleosome (human, UniProt P68431 1-136). The experiment in a line: apparent, EMSA. (In general: Mobility shift assays separate free from complexed probe on a gel.)
The target in assay [5] is T5, unmodified 147 bp mononucleosome (human, UniProt P68431 1-136). The experiment in a line: apparent, EMSA, lower limit.
Assay [6] has as its target T4, unmodified 187 bp mononucleosome. The experiment in a line: apparent, EMSA, lower limit.
Assay [7] addresses T5, unmodified 147 bp mononucleosome. In words: apparent Kd, EMSA, lower limit.
For assay [8] the target is unchanged. The experiment in a line: apparent Kd, EMSA, lower limit. This is another data set of the same source.
Assay [9] has the same target. In words: apparent, EMSA.
Assay [10] deals with T1, PHD1 (KDM5C residues 318–378). The experiment in a line: NMR; from I361.
For assay [11] the target is unchanged. In words: NMR; lower limit, from I361.

Residue numbers refer to the chain shown, from its start. Names and notes keep the numbering of the source. No end group written: not given here. Me3 = trimethyl; Me2 = dimethyl

B1: KDM5C (199–218) peptide (peptide)
peptide: Ac-QSVQPSKFNSYGRRAKRLQP-NH2
B1 displayed a Kd in assay [1] of 440 µM. Further, the koff with Avitag-PHD1 [2] worked out at 1.45 s⁻¹; with Avitag-PHD1 [3] it was 0.02 s⁻¹.

B2: KDM5C (295–314) peptide (peptide)
peptide: Ac-KEELSHSPEPCTKMTMRLRR-NH2
Turning to B2, the koff in the assay with Avitag-PHD1 [2] was 2.2 s⁻¹; in the assay with Avitag-PHD1 [3], 0.04 s⁻¹.

B3: H3 (1–18) tail peptide (peptide)
peptide: ARTKQTARKSTGGKAPRK
Regarding B3, the Kd in assay [1] was 140 µM; with PHD1 D343A mutant, greater than 1450 µM.

B4: KDM5C^1–839 K101A/R107A (domain or fragment)
chain: MEPGSDDFLPPPECPVFEPSWAEFRDPLGYIAKIRPIAEKSGICKIRPPADWQPPFAVEVDNFRFTPRIQRLNELEAQTRVKLNYLDQIAKFWEIQGSSLAIPNVEARILDLYSLSKIVVEEGGYEAICKDRRWARVAQRLNYPPGKNIGSLLRSHYERIVYPYEMYQSGANLVQCNTRPFDNEEKDKEYKPHSIPLRQSVQPSKFNSYGRRAKRLQPDPEPTEEDIEKNPELKKLQIYGAGPKMMGLGLMAKDKTLRKKDKEGPECPPTVVVKEELGGDVKVESTSPKTFLESKEELSHSPEPCTKMTMRLRRNHSNAQFIESYVCRMCSRGDEDDKLLLCDGCDDNYHIFCLLPPLPEIPKGVWRCPKCVMAECKRPPEAFGFEQATREYTLQSFGEMADSFKADYFNMPVHMVPTELVEKEFWRLVNSIEEDVTVEYGADIHSKEFGSGFPVSDSKRHLTPEEEEYATSGWNLNVMPVLEQSVLCHINADISGMKVPWLYVGMVFSAFCWHIEDHWSYSINYLHWGEPKTWYGVPSLAAEHLEEVMKKLTPELFDSQPDLLHQLVTLMNPNTLMSHGVPVVRTNQCAGEFVITFPRAYHSGFNQGYNFAEAVNFCTADWLPAGRQCIEHYRRLRRYCVFSHEELICKMAACPEKLDLNLAAAVHKEMFIMVQEERRLRKALLEKGITEAEREAFELLPDDERQCIKCKTTCFLSALACYDCPDGLVCLSHINDLCKCSSSRQYLRYRYTLDELPAMLHKLKVRAESFDTWANKVRVALEVEDGRKRSLEELRALESEARERRFPNSELLQQLKNCLSEAEACVSRALGLVSGQEAG
As for B4, the Kd was 6.3 µM in [4] and greater than 15.1 µM in [5].

B5: KDM5C^1–839 (domain or fragment)
chain: B4 chain with A101K, A107R
As to B5, the Kd in [4] is 4.3 µM.

B6: KDM5C^(1–839 ΔAP) (domain or fragment)
chain: MEPGSDDFLPPPECPVFEPSWAEFRDPLGYIAKIRPIAEKSGICKIRPPADWQPPFAVEVDNFRFTPRIQRLNELEAQTRVKGGGGPPEAFGFEQATREYTLQSFGEMADSFKADYFNMPVHMVPTELVEKEFWRLVNSIEEDVTVEYGADIHSKEFGSGFPVSDSKRHLTPEEEEYATSGWNLNVMPVLEQSVLCHINADISGMKVPWLYVGMVFSAFCWHIEDHWSYSINYLHWGEPKTWYGVPSLAAEHLEEVMKKLTPELFDSQPDLLHQLVTLMNPNTLMSHGVPVVRTNQCAGEFVITFPRAYHSGFNQGYNFAEAVNFCTADWLPAGRQCIEHYRRLRRYCVFSHEELICKMAACPEKLDLNLAAAVHKEMFIMVQEERRLRKALLEKGITEAEREAFELLPDDERQCIKCKTTCFLSALACYDCPDGLVCLSHINDLCKCSSSRQYLRYRYTLDELPAMLHKLKVRAESFDTWANKVRVALEVEDGRKRSLEELRALESEARERRFPNSELLQQLKNCLSEAEACVSRALGLVSGQEAG
On to B6, for which the Kd is greater than 35 µM in assay [5], greater than 42 µM in assay [6] and greater than 35 µM in assay [7].

B7: KDM5C1-839 ΔAP A388P (protein)
chain: B6 chain with A96P
B7: the Kd in assay [8] was greater than 45 µM.

B8: ARID (KDM5C residues 73–188) (domain or fragment)
chain: NELEAQTRVKLNYLDQIAKFWEIQGSSLKIPNVERRILDLYSLSKIVVEEGGYEAICKDRRWARVAQRLNYPPGKNIGSLLRSHYERIVYPYEMYQSGANLVQCNTRPFDNEEKDK
As to B8, the values for the Kd in assay [9] and in [4] were 31 µM and 22 µM, respectively.

B9: H3K4me1 (1–18) peptide (peptide)
peptide: ARTK(Me)QTARKSTGGKAPRK
For the molecule B9, in assay [10], the Kd was 313 µM.

B10: H3K4me2 (1–18) peptide (peptide)
peptide: ARTK(Me2)QTARKSTGGKAPRK
Turning to B10, the Kd in [11] is greater than 900 µM.

B11: H3K4me3 (1–18) peptide (peptide)
peptide: ARTK(Me3)QTARKSTGGKAPRK
Turning to B11, the Kd in [11] was greater than 1500 µM.

The koff is the rate constant with which the complex falls apart. A high value points to fast dissociation.
